# From patent publication US20080299088A1 (US Dept. of Health and Human Services, published 2008)
# Biological target: Notch-1 receptor on RIN 1046-38 clonal rat beta-cells (rat, UniProt Q07008 19-2531)
# Test: cell-based or functional assay
# Notch-1 receptor on RIN 1046-38 clonal rat beta-cells, sequence (Q07008 19-2531): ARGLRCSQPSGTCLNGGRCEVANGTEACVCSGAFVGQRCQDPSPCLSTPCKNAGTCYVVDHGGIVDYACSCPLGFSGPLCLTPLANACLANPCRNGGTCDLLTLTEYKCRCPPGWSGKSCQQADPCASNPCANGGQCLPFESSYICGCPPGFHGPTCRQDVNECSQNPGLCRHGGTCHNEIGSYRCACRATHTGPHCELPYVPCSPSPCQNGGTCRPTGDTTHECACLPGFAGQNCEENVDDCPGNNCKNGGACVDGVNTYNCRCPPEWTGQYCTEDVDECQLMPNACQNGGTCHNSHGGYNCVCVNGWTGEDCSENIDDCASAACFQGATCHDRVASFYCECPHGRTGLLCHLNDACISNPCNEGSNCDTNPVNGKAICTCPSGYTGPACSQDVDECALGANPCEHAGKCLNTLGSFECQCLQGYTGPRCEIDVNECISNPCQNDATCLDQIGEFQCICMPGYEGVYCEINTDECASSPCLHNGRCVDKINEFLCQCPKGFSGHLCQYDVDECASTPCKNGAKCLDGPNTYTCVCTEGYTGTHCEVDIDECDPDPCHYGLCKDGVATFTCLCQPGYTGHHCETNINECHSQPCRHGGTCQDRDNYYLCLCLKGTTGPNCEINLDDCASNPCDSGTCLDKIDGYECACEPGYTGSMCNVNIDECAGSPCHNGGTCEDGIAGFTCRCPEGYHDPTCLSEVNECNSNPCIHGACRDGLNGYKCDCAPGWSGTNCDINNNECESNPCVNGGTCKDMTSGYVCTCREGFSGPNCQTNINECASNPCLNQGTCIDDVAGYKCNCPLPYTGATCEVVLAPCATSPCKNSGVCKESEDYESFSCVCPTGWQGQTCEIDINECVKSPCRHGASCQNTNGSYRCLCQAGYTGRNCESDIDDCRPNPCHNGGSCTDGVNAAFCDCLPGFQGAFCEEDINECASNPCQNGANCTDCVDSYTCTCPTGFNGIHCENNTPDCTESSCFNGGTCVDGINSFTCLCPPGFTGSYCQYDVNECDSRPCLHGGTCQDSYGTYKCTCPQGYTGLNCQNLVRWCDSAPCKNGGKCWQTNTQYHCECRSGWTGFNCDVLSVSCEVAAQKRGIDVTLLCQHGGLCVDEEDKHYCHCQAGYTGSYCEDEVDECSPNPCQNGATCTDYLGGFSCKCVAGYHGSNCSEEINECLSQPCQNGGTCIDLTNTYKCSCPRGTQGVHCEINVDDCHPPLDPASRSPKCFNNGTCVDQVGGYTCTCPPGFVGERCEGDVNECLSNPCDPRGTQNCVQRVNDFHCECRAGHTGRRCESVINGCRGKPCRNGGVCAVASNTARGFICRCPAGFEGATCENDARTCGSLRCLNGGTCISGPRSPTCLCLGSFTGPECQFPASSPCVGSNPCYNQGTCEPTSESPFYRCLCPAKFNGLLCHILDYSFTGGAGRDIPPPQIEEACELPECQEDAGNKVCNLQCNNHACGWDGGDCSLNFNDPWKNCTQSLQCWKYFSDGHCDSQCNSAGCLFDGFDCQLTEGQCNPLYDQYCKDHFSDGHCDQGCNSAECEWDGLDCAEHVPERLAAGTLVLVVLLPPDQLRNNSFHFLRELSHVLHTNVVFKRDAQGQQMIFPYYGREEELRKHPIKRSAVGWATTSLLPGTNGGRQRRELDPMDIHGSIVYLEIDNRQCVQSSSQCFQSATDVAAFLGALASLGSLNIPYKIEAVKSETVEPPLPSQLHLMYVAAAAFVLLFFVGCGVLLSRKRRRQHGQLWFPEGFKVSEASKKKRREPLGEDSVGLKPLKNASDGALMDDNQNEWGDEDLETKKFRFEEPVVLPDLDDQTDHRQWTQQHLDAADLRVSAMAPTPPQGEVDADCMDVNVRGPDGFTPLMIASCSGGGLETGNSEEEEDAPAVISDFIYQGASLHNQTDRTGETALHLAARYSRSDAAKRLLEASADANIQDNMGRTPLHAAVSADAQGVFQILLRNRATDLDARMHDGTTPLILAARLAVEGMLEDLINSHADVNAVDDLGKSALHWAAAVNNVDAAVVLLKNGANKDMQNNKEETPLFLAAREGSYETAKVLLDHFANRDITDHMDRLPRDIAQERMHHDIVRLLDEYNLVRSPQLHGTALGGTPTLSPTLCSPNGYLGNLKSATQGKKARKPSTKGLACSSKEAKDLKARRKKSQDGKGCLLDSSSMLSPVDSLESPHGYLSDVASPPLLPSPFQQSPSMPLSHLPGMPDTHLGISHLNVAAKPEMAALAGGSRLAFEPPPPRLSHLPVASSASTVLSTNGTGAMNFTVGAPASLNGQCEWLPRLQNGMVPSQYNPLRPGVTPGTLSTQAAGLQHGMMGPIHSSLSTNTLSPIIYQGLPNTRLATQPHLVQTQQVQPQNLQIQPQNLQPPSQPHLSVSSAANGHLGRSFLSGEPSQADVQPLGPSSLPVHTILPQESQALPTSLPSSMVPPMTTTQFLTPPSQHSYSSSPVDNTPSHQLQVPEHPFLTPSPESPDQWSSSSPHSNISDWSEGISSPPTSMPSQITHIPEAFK
"NICD nuclear localization, R-JAG together with glucose [fold]","NICD translocation (nuclear NICD, immunoblot of nuclear extracts of RIN cells) [fold]",Binder
6,4,CDDYYYGFGCNKFGRPRDD [Jagged peptide R-JAG]
,4,CDDYYYGFGCNKFCRPR [Jagged peptide JAG-1]
